We go through 1 molecule from patent US20210171647A1 (WUXI BIOLOGICS SHANGHAI, published 2021).

Holding throughout (experiment): ELISA, antibody coated, OX40-ECD.His mutant supernatant; relative to silent alanine substitutions;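 also: captured OX40 mutant protein detected with HRP-labelled anti-His antibody, absorbance read-out, scaled to the mean signal of control mutants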
Assay [1] deals with T1, human OX40-ECD.His P80A (human, UniProt P43489 29-214).
T1 construct: extracellular domain; not shown: C-terminal His-tag
T1 sequence (looked up): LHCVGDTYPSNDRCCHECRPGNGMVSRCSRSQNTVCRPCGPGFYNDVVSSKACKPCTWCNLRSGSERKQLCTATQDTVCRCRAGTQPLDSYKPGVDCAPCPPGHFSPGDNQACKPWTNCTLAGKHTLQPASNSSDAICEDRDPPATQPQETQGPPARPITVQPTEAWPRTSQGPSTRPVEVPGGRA

Assay [2] addresses T2, human OX40-ECD.His S54A (human, UniProt P43489 29-214).
T2 construct: extracellular domain; not shown: C-terminal His-tag
T2 sequence (looked up): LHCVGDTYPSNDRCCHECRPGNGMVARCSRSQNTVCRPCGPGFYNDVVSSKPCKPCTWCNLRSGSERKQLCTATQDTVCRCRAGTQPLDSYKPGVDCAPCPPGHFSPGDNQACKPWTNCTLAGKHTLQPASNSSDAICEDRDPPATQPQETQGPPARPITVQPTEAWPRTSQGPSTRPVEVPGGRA

For assay [3], the target named is T3, human OX40-ECD.His S57A (human, UniProt P43489 29-214).
T3 construct: extracellular domain; not shown: C-terminal His-tag
T3 sequence (looked up): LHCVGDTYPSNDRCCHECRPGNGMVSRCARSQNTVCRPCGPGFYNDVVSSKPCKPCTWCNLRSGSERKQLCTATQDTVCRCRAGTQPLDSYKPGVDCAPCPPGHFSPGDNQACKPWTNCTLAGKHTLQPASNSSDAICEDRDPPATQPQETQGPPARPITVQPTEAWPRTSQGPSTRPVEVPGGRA

The target in assay [4] is T4, human OX40-ECD.His V32A (human, UniProt P43489 29-214).
T4 construct: extracellular domain; not shown: C-terminal His-tag
T4 sequence (looked up): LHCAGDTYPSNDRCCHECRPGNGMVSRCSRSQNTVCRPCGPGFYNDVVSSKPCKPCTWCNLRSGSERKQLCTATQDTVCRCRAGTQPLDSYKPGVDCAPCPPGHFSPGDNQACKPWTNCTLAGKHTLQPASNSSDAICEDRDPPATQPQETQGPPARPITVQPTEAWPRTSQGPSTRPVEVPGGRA

Assay [5] deals with T5, human OX40-ECD.His A150G (human, UniProt P43489 29-214).
T5 construct: extracellular domain; not shown: C-terminal His-tag
T5 sequence (looked up): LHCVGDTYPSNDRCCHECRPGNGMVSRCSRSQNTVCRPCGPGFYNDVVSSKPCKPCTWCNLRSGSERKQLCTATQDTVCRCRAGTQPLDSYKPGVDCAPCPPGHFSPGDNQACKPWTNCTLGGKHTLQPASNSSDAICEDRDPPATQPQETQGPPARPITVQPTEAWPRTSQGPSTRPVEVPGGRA

Assay [6] deals with T6, human OX40-ECD.His T102A (human, UniProt P43489 29-214).
T6 construct: extracellular domain; not shown: C-terminal His-tag
T6 sequence (looked up): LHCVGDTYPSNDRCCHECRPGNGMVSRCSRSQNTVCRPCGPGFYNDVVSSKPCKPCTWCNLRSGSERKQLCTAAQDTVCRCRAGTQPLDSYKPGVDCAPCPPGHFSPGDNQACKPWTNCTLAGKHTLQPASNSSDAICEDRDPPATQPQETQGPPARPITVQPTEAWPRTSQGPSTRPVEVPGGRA

Assay [7] concerns the target T7, human OX40-ECD.His Q156A (human, UniProt P43489 29-214).
T7 construct: extracellular domain; not shown: C-terminal His-tag
T7 sequence (looked up): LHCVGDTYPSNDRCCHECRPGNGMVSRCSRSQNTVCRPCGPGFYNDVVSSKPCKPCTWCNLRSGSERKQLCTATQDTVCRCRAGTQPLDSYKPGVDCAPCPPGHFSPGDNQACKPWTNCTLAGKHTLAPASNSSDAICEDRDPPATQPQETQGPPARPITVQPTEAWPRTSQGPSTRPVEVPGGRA

Assay [8] concerns the target T8, human OX40-ECD.His A111G (human, UniProt P43489 29-214).
T8 construct: extracellular domain; not shown: C-terminal His-tag
T8 sequence (looked up): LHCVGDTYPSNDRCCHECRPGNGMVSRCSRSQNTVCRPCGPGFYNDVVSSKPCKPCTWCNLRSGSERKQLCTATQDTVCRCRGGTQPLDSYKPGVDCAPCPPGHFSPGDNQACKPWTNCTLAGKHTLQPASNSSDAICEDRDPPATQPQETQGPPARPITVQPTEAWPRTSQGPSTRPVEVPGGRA

The target in assay [9] is T9, human OX40-ECD.His D137A (human, UniProt P43489 29-214).
T9 construct: extracellular domain; not shown: C-terminal His-tag
T9 sequence (looked up): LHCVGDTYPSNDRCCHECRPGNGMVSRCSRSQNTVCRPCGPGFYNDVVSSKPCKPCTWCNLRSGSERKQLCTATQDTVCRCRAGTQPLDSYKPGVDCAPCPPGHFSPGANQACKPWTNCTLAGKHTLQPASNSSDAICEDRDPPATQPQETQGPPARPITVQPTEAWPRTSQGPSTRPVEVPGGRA

The target in assay [10] is T10, human OX40-ECD.His L98A (human, UniProt P43489 29-214).
T10 construct: extracellular domain; not shown: C-terminal His-tag
T10 sequence (looked up): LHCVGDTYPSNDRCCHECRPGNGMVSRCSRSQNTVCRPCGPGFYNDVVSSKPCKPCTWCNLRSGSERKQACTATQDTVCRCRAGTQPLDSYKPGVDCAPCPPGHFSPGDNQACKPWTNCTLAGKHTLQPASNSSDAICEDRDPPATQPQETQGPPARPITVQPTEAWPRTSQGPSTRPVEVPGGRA

B1: 1.134.9-u1-IgG1L (antibody, V domains shown)
VH: QVQLQESGPGLVKPSGTLSLTCAVSGGSISSYNWWSWVRQPPGKGLEWIGEIYHGGNTNYNPSLKSRVTMSVDNSKNQFSLKLSSVTAADTAVYYCARAPGDWGGSPYFDFWGQGTLVTVSS
VL: SSELTQDPAVSVALGQTVRITCQGDNLRTYYASWYQQKPGQAPILLIYGRNKRPSGIPDRFSGSSSGNTASLTITGAQAEDEAAYYCNSRDSSGNPVVFGGGTKLTVL
notes: fully human IgG1, lambda
Take B1: the “Fold Change” value is 0.944 in assay [1]; 0.993 in assay [2]; 0.963 in assay [3]; 1.01 in assay [4]; 0.96 in assay [5]; 0.94 in assay [6]. In addition, the “Fold Change” value in assay [7] stood at 0.97; in assay [8], 0.853; in assay [9], 0.851; in assay [10] it was 1.01.
